In patent publication US20060165684A1 (published 2006):
Changes are numbered by the printed parent chain.

T1: peptide 6 (TIRC7 derived peptide)
T1 construct: also called Peptid6; Vol 6
T1 peptide: DLPDASVNGWSSDE

B1: chimeric Neliximab (antibody, V domains shown)
VH: EVQLQQSGPELVKPGASVKMSCKASGYTFTTYVMHWVKQKPGQGLEWIGYINPYNDGTNYNEKFKGKATLTSDKSSSTAYMELSTLTSEDSAVYYCAEFITKTVGGSNWYLDVWGAGTTVTVSS
VL: QIVLTQSPAIMSASPGEKVTMTCSASSSISYIHWFQQKPGTSPKRWIYDTSKLPSGVPARFSGSGSGTSYSLTISSMEAEDAATYYCHQRSSYTWTFGGGTKLEIKR
notes: Murine VH and VL joined to human gamma 1 (pConGamma1f vector) and human kappa (pConKappa vector) constant regions, made in NSO or CHO cells; also called chimeric antibody of clone 17-1; chimerized #17
B2: murine Neliximab (antibody, V domains shown)
VH: B1 VH
VL: B1 VL
notes: also called #17; Clone 17
B3: murine Metiliximab (antibody, V domains shown)
VH: EVQLQQSGPELVKPGASVKMSCKASGYTFTSYVIHWVKQKPGQGLEWIGYINPYNYDTKYNEKFKGEATLTSDKSSNTAYMELSSLTSEDSAVYYCAGFFTRAVGGSYWYLDVWGAGTTVTVSS
VL: B1 VL with P54V, S76N, E80A, S92A, Y93S
notes: also called #9; Clone 9

Target: T1, peptide 6 (TIRC7 derived peptide)
Assay: solution equilibrium titration with peptide, free antibody by ELISA (method of Friquet et al 1985), Klotz plot

| Kd | Binder |
| --- | --- |
| 1 nM | B1 |
| 1 nM | B2 |
| 0.5 nM | B3 |
